Test results: publication PMC3511531, “Structural Requirements for the Procoagulant Activity of Nucleic Acids”

Molecular target: high molecular weight kininogen (single-chain) (UniProt P01042 19-644)
Assay: microtiter plate binding assay (streptavidin-peroxidase); Proteins coated at 10 ug/mL in 100 mM sodium carbonate pH 9.5 (4 C, 20 h); blocked with TBS + 3% BSA; biotinylated DNA 0.31-50 ug/mL, 22 C, 2 h; TBS washes; binding buffer composition and pH not stated
Conditions: protein: commercial; hairpin, blunt-ended

Sequence of high molecular weight kininogen (single-chain) (P01042 19-644): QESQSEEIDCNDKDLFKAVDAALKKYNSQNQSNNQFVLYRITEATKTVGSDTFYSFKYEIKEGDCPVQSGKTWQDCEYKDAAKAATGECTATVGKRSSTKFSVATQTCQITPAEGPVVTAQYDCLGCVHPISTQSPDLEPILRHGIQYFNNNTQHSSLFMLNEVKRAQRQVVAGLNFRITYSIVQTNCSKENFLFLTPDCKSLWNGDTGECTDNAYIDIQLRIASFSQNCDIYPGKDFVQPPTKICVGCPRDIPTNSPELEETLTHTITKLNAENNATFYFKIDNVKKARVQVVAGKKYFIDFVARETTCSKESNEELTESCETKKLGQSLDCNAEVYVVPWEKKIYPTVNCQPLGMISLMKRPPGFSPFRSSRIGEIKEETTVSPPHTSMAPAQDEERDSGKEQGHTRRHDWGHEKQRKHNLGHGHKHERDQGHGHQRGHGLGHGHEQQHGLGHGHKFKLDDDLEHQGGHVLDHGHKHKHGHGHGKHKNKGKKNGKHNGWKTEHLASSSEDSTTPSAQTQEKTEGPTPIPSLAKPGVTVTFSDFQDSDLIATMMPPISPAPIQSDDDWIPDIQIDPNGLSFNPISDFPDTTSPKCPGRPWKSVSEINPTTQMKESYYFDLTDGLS

Work on GGGAATGGGTATTCCCATCCC (structured_DNA) [21mer-H1 DNA] yielded a Kd of 1820 ± 230 nM.
